Molecular target: major capsid protein (MCP) (human cytomegalovirus (HCMV) strain AD169) (UniProt P16729)
Test: cryo-EM structure

“smallest capsid protein (SCP) (from UniProt Q7M6N6 1-75) (natural protein)” gave a stoichiometry N of 1.

From article PMC5715728
